B1: TPR t1 (parent)
chain: GACCAAUCUGCCCUCAGAGCUCGAGAACAUCUUCGGAUGCAGAGGAGGCAGGCUUCGGUGGCGCGAUAGCGCCAACGUCCUCAACCUCCAAUGCAUCCCACCACAUGAUGAUGCCUGAAGAGCCUUGGUUUUUUG

Variants of: B1
Test: polymerase ribozyme fitness, log enrichment relative to wild type (log ratio); higher = more active; in vitro selection for triplet polymerase activity
Procedure, shortened: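 Input and output libraries were sequenced on Illumina after a single in vitro selection round, run in triplicate on PCR-built, transcribed mutant libraries of each subunit of a heterodimeric triplet polymerase ribozyme. Selection annealed libraries to a biotinylated primer, the partner subunit and triplets, incubated them frozen at −7 °C, then gel-excised extended constructs for streptavidin-bead capture and RT-PCR. Genotypes with ≥10 input reads and ≥1 read per output were kept. Fitness is the logarithm, taken in base 2, of genotype enrichment divided by wild-type enrichment, using inverse-variance-weighted replicate averages.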

Variant | polymerase ribozyme fitness (log ratio)
GACCAAUCUGCCCUCAGAGCUCGAGAACAUCUUCGGAUGCAGAGGAGGCAGGCUUCGGUGGGGCGAUAGCGUCAACGUCCUCAACCUCCAAUGCAUCCCACCACAUGAUGAUGCCUGAAGAGCCUUGGUUUUUUG | -2.53
GACCAAUCUGCCCUCAGAGCUCGAGAACAUCUUCGGAUGCAGAGGAGGCAGGCUUCGGUGGAGCGAUAGCGCCAACGUCCUCAACCUCCAAUGCAUCCCACCACAUGAUGAUGCCUGAAGAGCCUUGGAUUUUUG | -2.21
GACCAAUCUGCCCUCAGAGCUCGAGAACAUCUUCGGAUGCAGAGGAGGCAGGCUUCGGUGGGGCGAUAGCGCCAACGUCCUCAACCUCCAAUGCAUCCCACCACAUGAUCAUGCCUGAAGAGCCUUGGUUUUUUG | -6.06
GACCAAUCUGCCCUCAGAGCUCGAGAACAUCUUCGGAUGCAGAGGAGGCAGGCUUCGGUGGGGCGAUAGCGCCAACGACCUCAACCUCCAAUGCAUCCCACCACAAGAUGAUGCCUGAAGAGCCUUGGUUUUUUG | -1.75
GACCAAUCUGCCCUCAGAGCUCGAGAACAUCUUCGGAUGCAGAGGAGGCAGGCUUCGGUGGGGCGAUAGCGCCAACGUCCUCAACCUCCAAUGCAUCCCACCACAUGAUGAUCCCUGAAGAGCCUUGGUUUUUUG | -4.48
GACCAAUCUGCCCUCAGAGCUCGAGAACAUCUUCGGAUGCAGAGGAGGCAGGCUUCGGUGGAGCGAUAGCGCCAACGCCCUCAACCUCCAAUGCAUCCCACCACAUGAUGAUGCCUGAAGCGCCUUGGUUUUUUG | 0.55
GACCAAUCUGCCCUCAGAGCUCGAGAACAUCUUCGGAUGCAGAGGAGGCAGGCUUCGGUGGAGCGAUAGCGCCAACGUCCUCAACCUCCAAUGCAUCCCACCACAUGAUGAUGCCUGAAGAGCCUUGAUUUUUUG | -2.62
GACCAAUCUGCCCUCAGAGCUCGAGAACAUCUUCGGAUGCAGAGGAGGCAGGCUUCGGUGGAGCGAUAGCGCCAACGUCCUCAACCUCCAAUGCAACCCACCACAUGAUGAUGCCUGAAGAGCCUUGGUUUUUUG | -1.77
GACCAAUCUGCCCUCAGAGCUCGAGAACAUCUUCGGAUGCAGAGGAGGCAGGCUUCGGUGGGGCGAUAGCGCCAACGUCCUCAACCUCCAAUGCAUCCCACCACAUGAUGAAGCCUGAAGAGCCUUGGUUUUUUG | -0.878
GACCAAUCUGCCCUCAGAGCUCGAGAACAUCUUCGGAUGCAGAGGAGGCAGGCUUCGGUGGGGCGAUAGCGCCAACGUCCUCAACCUCCAAUGCAUCCCACCACAUGAUGAUGCCUGAAGAGACUUGGUUUUUUG | -1.01
GACCAAUCUGCCCUCAGAGCUCGAGAACAUCUUCGGAUGCAGAGGAGGCAGGCUUCGGUGGAGCGAUAGCGCCAACGUCCUCAACCACCAAUGCAUCCCCCCACAUGAUGAUGCAUGAAGAGCCUUGGUUUUUUG | -2.71
GACCAAUCUGCCCUCAGAGCUCGAGAACAUCUUCGGAUGCAGAGGAGGCAGGCUUCGGUGGGGCGAUAGCGCCAACGUCUUCAACCUCCAAUGCAUCCCACCACAUGAUGAUGCCUGAAGAGCCUUGGUUUUUUG | -2.03
GACCAAUCUGCCCUCAGAGCUCGAGAACAUCUUCGGAUGCAGAGGAGGCAGGCUUCGGUGGGGCGAUAGCGCCAACGUCCUCAACCUCCAAUGCAUCCCACCACAAGAUGAUGCCUGAAGAGCCUUGGUUUUUUG | -1.16
GACCAAUCUGCCCUCAGAGCUCGAGAACAUCUUCGGAUGCAGAGGAGGCAGGCUUCGGUGGGGCGAUAGCGCCAACGUCCUCAACCUCCUAUGCAUCCCACCACAUGAUGAUGCCUGAAGAGCCUUGGUUUUUUG | -3.82
GACCAAUCUGCCCUCAGAGCUCGAGAACAUCUUCGGAUGCAGAGGAGGCAGGCUUCGGUGGUGCGAUAGCGCCAACGUCCUCCACCUUCAAUGCAUCCCACCACAUGAUGAUGCCUGAAAAGCCUUGGUUUUUUG | 0.0358
GACCAAUCUGCCCUCAGAGCUCGAGAACAUCUUCGGAUGCAGAGGAGGCAGGCUUCGGUGGGGCGAUAGCGCCAACGUCCUCAACCUCCAAUGCAUCCCACCACAUGAUGAUGCCUGAAGAGCCUUGGUUUAUUG | -0.911
GACCAAUCUGCCCUCAGAGCUCGAGAACAUCUUCGGAUGCAGAGGAGGCAGGCUUCGGUGGGGCGAUAGCGCCAACGUCCUCAACCUCCAAUGCAUCCCACCACAUGAUGAUGUCUGAAGAGCCUUGGUUUUUUG | -4.41
GACCAAUCUGCCCUCAGAGCUCGAGAACAUCUUCGGAUGCAGAGGAGGCAGGCUUCGGUGGGGCGAUAGCGCCAACGUCCUCAACCUCCAAUGCAUCCCCCCACAUGAUGAUGCCUGAAGAGCCUUGGUUUUUUG | -3.47
GACCAAUCUGCCCUCAGAGCUCGAGAACAUCUUCGGAUGCAGAGGAGGCAGGCUUCGGUGGAGCGAUAGCGCCAACGGCCUCAACCUCCAAUGCAUCCCACCACAUGAUGAUGCCUGAAGAGCCUUGGUUUUUUG | -2.46
GACCAAUCUGCCCUCAGAGCUCGAGAACAUCUUCGGAUGCAGAGGAGGCAGGCUUCGGUGGAGCGAUAGCGCCAACGUCCUCAACCUCCAAUGCAGCCCACCACAUGAUGAUCCCUGAAGAGGCUUGGUUUUAUG | -3.2
GACCAAUCUGCCCUCAGAGCUCGAGAACAUCUUCGGAUGCAGAGGAGGCAGGCUUCGGUGGGGCGAUAGCGCCAACGUCCUCAACCUCCAAAGCAUCCCACCACAUGAUGAUGCCUGAAGAGCCUUGGUUUUUUG | -5.63

Variant | polymerase ribozyme fitness (log ratio)
GACCAAUCUGCCCUCAGAGCUCGAGAACAUCUUCGGAUGCAGAGGAGGCAGGCUUCGGUGGGGCGAUAGCGCCAACGUCCUCAACCUCUAAUGCAUCCCACCACAUGAUGCUGCCUGAAGAGCCUCGGCUUUUUG | -4.44
GACCAAUCUGCCCUCAGAGCUCGAGAACAUCUUCGGAUGCAGAGGAGGCAGGCUUCGGUGGGGCGAUAGCGCCAACGUCCUCAACCUCCUAUGCAUCCCACCACAUGAUGAAGCGUGAAGAGCUUUGGUUUUCUG | -5.24
GACCAAUCUGCCCUCAGAGCUCGAGAACAUCUUCGGAUGCAGAGGAGGCAGGCUUCGGUGGGGCGAUAGCGCCAACGUCCUCAACCUCCAAUGCAUCCCACCACAUGAUGAUGCUUGAAGAUCCUUGGUUUUUUG | -5.8
GACCAAUCUGCCCUCAGAGCUCGAGAACAUCUUCGGAUGCAGAGGAGGCAGGCUUCGGUGGGGCGAUAGCGCCAACGUCCUCAACAUCCAAUGCAUCCCACCACAUGAUGAUGCCUGAAGAGCCUUGGUUUUUUG | -3.17
GACCAAUCUGCCCUCAGAGCUCGAGAACAUCUUCGGAUGCAGAGGAGGCAGGCUUCGGUGGAGCGAUAGCGCCAACGUCCUCAACCUCCAAUGCAUCCCACCACAUGAUGAAGCCUGAAGAGGCUUGGUUUUUUG | -1.31
GACCAAUCUGCCCUCAGAGCUCGAGAACAUCUUCGGAUGCAGAGGAGGCAGGCUUCGGUGGGGCGAUAGCGCCAACGGCCUCAACCUGCAAUGCAUCCCACCACAUGAUGAUGCCUGAAGAGCCUUGGUUUUUUG | -3.52
GACCAAUCUGCCCUCAGAGCUCGAGAACAUCUUCGGAUGCAGAGGAGGCAGGCUUCGGUGGUGCGGUAGCGCCAACGUCCUCAACCUCCAAUGCAUCCCUCCACAUGAUGAUGCCUGAAGAGCCUUGGUUUUUUG | -2.66
GACCAAUCUGCCCUCAGAGCUCGAGAACAUCUUCGGAUGCAGAGGAGGCAGGCUUCGGUGGGGCGAUAGCGCCAACGUCCUCAACCUCCAAUGCAUCCCACCACAUGAUAAUGCCUGAAGAGCCUGGGUUUUUUG | -5.29
GACCAAUCUGCCCUCAGAGCUCGAGAACAUCUUCGGAUGCAGAGGAGGCAGGCUUCGGUGGGGCGAUAGCGCCACCGUCCUCAACCUCCAAUGCAUCCCACCACAUGAUGAUGCCUGUAGAGACUUGGUUUUUUU | -2.3
GACCAAUCUGCCCUCAGAGCUCGAGAACAUCUUCGGAUGCAGAGGAGGCAGGCUUCGGUGGAGCGAUAGCGCCAACGUCCUCAACCUCCAAUGCAUCCCACCACAUGAUGAUGCCUGAAGAGCCUGGGUUUUUUG | -2.4
GACCAAUCUGCCCUCAGAGCUCGAGAACAUCUUCGGAUGCAGAGGAGGCAGGCUUCGGUGGUGCGUUAGCGCGAACGUCCUCAACCUCCAAUGCAUCCCACCAUAUGAUGACGCCUGAAGAGCCUUGGUUUUUUG | -1.37
GACCAAUCUGCCCUCAGAGCUCGAGAACAUCUUCGGAUGCAGAGGAGGCAGGCUUCGGUGGGGCGAUAGCGCCAACGUCCUCAACCUCCAAUGCAUCCCACCACAUGAUGAUGCCUGAAGAGCCUUGGUUUUAUG | -1.22
GACCAAUCUGCCCUCAGAGCUCGAGAACAUCUUCGGAUGCAGAGGAGGCAGGCUUCGGUGGGGCGAUAGCGCCAACGUCCUCAACCUCCAAUGCAUCCCACCACAUGAUGAUGCGUGAAGAGCCAUGGUUUUUUG | -3.31
GACCAAUCUGCCCUCAGAGCUCGAGAACAUCUUCGGAUGCAGAGGAGGCAGGCUUCGGUGGAGCGAUAGCGCCAACGUCCUCAACCUCCAAUGCAUCCCACCACAUGAUGAUGCCUGAAGAGCCUUGGUUUUUUU | -1.52
GACCAAUCUGCCCUCAGAGCUCGAGAACAUCUUCGGAUGCAGAGGAGGCAGGCUUCGGUGGAGCGAUAGCGCCAACGUCCUCAACCUCCAAUGCAUCCCACCACAUGAUGAUGCCUGAAGAGCCUUGGUUUUUUC | -0.579
GACCAAUCUGCCCUCAGAGCUCGAGAACAUCUUCGGAUGCAGAGGAGGCAGGCUUCGGUGGGGCGAUAGCGCCAACGUCCUCAACCUCCAAUGCAUCCCACCACAAGGUGAUGCAUGAAGAGACUUGGUUUUUUG | -5.43
GACCAAUCUGCCCUCAGAGCUCGAGAACAUCUUCGGAUGCAGAGGAGGCAGGCUUCGGUGGAGCGAUAGCGCCAACGUCCUCAACCUCCAAUGCAUCCCACCACAUGAUGAUGCCUGAAGAGCCUUGGUGUUAUG | -1.17
GACCAAUCUGCCCUCAGAGCUCGAGAACAUCUUCGGAUGCAGAGGAGGCAGGCUUCGGUGGGGCGAUAGCGCCAACGUCCUCAACCUCCAAUGCGUCCCACCACAUGAUGAUGCCUGAAGAGCCUUGGUUUCUUG | -1.55
GACCAAUCUGCCCUCAGAGCUCGAGAACAUCUUCGGAUGCAGAGGAGGCAGGCUUCGGUGGGGCGAUAGCGCCAACGUCCUCAACCUCCAAUGCAUCCCACCACAUGAUGAUGCCUUAAGAGCCUUGGUUUUUUG | -3.34
GACCAAUCUGCCCUCAGAGCUCGAGAACAUCUUCGGAUGCAGAGGAGGCAGGCUUCGGUGGGGCGAUAGCGCCAACGUCCUCAACCUCCAAUGCAUCCCACCACAUGAUGAUGCCUCAAGAGCCUUGGUUUUUUG | -5.09
GACCAAUCUGCCCUCAGAGCUCGAGAACAUCUUCGGAUGCAGAGGAGGCAGGCUUCGGUGGAGCGAUAGCGCCAACGUCCUCAACCUCCAAUGCAUCCCACCACAUGAUGAUGCCUGAAGAGCCUUGGUGUUUUG | -1.46
